Measurements as given in article PMC3462190, “A Peptidic Unconjugated GRP78/BiP Ligand Modulates the Unfolded Protein Response and Induces Prostate Cancer Cell Death” (PLoS ONE, 2012).

System: GRP78/BiP
Experiment: Co-immunoprecipitation with endogenous GRP78/BiP
Assay type: binding
Description: 22Rv.1 cells were used for interaction studies of endogenous Bag-1 and GRP78/BiP, while for the in vivo interaction of the Bag-1 peptide and GRP78/BiP, HEK-293 cells were transfected with a plasmid encoding HA-tagged Bag-1 peptide. Twenty-four hours prior to the experiment, the cells in both cases were washed with phosphate buffered saline (PBS) and treated with 20 mM Dithiobis(succinimidyl propionate) (DSP) in PBS for 30 min at room temperature. The reaction was stopped with 20 mM Tris and the cells were lysed in 50 mM Tris-HCl pH 7.4, 120 mM NaCl, 1 mM EDTA, 0.4% NP40 and 1% protease inhibitor cocktail. Immunoprecipitation of GRP78/BiP was carried out overnight at 4°C with anti-GRP78 antibody coupled to sepharose A beads (Abcam, ab21685). Binding of endogenous Bag-1 or of HA-peptide was determined by Western blotting using a Bag-1 or an HA specific antibody.
Figure 1 Bag-1 proteins interact with the molecular chaperone GRP78/BiP. A. The Bag-1 family of proteins binds GRP78/BiP. GST pull-down assay was performed incubating 5 µg each of GST-fused Bag-1 proteins with 400 µg of 22Rv.1 cell lysate. […]
Figure 2 Identification of Bag-1 peptide interfering with the action of GRP78/BiP. […] Western blot analysis with an HA antibody to detected the Bag-1 mutants is shown. […] Thereafter luciferase activity was measured. […]

Molecule	in vivo interaction with GRP78/BiP (22Rv.1 cells, endogenous Bag-1)	in vivo interaction with endogenous GRP78/BiP (HEK-293 cells expressing HA-tagged Bag-1 peptide, DSP cross-linked)
Bag-1: cochaperone Bag-1, HA-tagged (pcDNA3.1-HA-Bag-1), or endogenous (protein, left off: HA, end not stated, kept, cochaperone Bag-1, HA-tagged (pcDNA3.1-HA-Bag-1), or endogenous) TPLSALGIQDGCRVMLIGKKNSPQEEVELKKLKHLEKSVEKIADQLEELNKELTGIQQGFLPKDLQAE	bind to GRP78/BiP in 22Rv.1 cells	
Bag-1 peptide: internal sequence of 68 amino acids of Bag-1 (Bag1-L 202–269), HA-tagged, expressed from pcDNA3 (also: HA tag, end not given here) TPLSALGIQDGCRVMLIGKKNSPQEEVELKKLKHLEKSVEKIADQLEELNKELTGIQQGFLPKDLQAE		interacted with endogenous GRP78/BiP protein
